Experimental data from PMC6165294.

Assays:
[1] = target: GST-fusion NaV1.1 IQ domain (amino acids 1909-1936) (human); test: pull-down; GST-fusion IQ or mutant (2-4 ug) immobilised on GS-4B; CaM or mutant 0.07-7.0 uM; [Ca2+] 100 nM; 150 mM NaCl, 50 mM Tris pH 8.0, 4 h at 4 C; Coomassie densitometry, one- or two-sites Hill fit; apparent constants
[2] = target: GST-fusion NaV1.1 IQ domain phosphorylated by CaMKII (human); test: pull-down; phosphorylation series (Figure 6, Table 3): GST-IQ on GS-4B beads as control, treated with CaMKIIT286D or with CIP, then CaM 0.07-7 uM; [Ca2+] ≈ free; two-sites Hill fit; apparent constants
[3] = target: GST-fusion NaV1.1 IQ domain dephosphorylated by CIP (human); test: as above
[4] = target: GST-fusion NaV1.1 IQ domain (amino acids 1909-1936) (human); test: as above
[5] = target: GST-fusion NaV1.1 IQ domain phosphorylated by CaMKII (human); test: pull-down; phosphorylation series (Figure 6, Table 3): GST-IQ on GS-4B beads as control, treated with CaMKIIT286D or with CIP, then CaM 0.07-7 uM; [Ca2+] 100 nM; two-sites Hill fit; apparent constants
[6] = target: GST-fusion NaV1.1 IQ domain dephosphorylated by CIP (human); test: as above
[7] = target: GST-fusion NaV1.1 IQ domain (amino acids 1909-1936) (human); test: as above
[8] = target: GST-fusion NaV1.1 IQ domain (amino acids 1909-1936) (human); test: pull-down; GST-fusion IQ or mutant (2-4 ug) immobilised on GS-4B; CaM or mutant 0.07-7.0 uM; [Ca2+] 2 mM; 150 mM NaCl, 50 mM Tris pH 8.0, 4 h at 4 C; Coomassie densitometry, one- or two-sites Hill fit; apparent constants
[9] = target: GST-fusion NaV1.1 IQ domain (amino acids 1909-1936) (human); test: pull-down; GST-fusion IQ or mutant (2-4 ug) immobilised on GS-4B; CaM or mutant 0.07-7.0 uM; [Ca2+] ≈ free; 150 mM NaCl, 50 mM Tris pH 8.0, 4 h at 4 C; Coomassie densitometry, one- or two-sites Hill fit; apparent constants
[10] = target: GST-fusion NaV1.1 IQ domain (amino acids 1909-1936) (human); test: pull-down; GST-fusion IQ or mutant (2-4 ug) immobilised on GS-4B; CaM or mutant 0.07-7.0 uM; [Ca2+] 500 nM; 150 mM NaCl, 50 mM Tris pH 8.0, 4 h at 4 C; Coomassie densitometry, one- or two-sites Hill fit; apparent constants
[11] = target: GST-fusion NaV1.1 IQ domain phosphorylated by CaMKII (human); test: pull-down; phosphorylation series (Figure 6, Table 3): GST-IQ on GS-4B beads as control, treated with CaMKIIT286D or with CIP, then CaM 0.07-7 uM; [Ca2+] 2 mM; two-sites Hill fit; apparent constants
[12] = target: GST-fusion NaV1.1 IQ domain dephosphorylated by CIP (human); test: as above
[13] = target: GST-fusion NaV1.1 IQ domain (amino acids 1909-1936) (human); test: as above
[14] = target: GST-fusion NaV1.1 IQ domain phosphorylated by CaMKII (human); test: pull-down; phosphorylation series (Figure 6, Table 3): GST-IQ on GS-4B beads as control, treated with CaMKIIT286D or with CIP, then CaM 0.07-7 uM; [Ca2+] 500 nM; two-sites Hill fit; apparent constants
[15] = target: GST-fusion NaV1.1 IQ domain dephosphorylated by CIP (human); test: as above
[16] = target: GST-fusion NaV1.1 IQ domain (amino acids 1909-1936) (human); test: as above

Substance: calmodulin (CaM), human, wild type (from UniProt P0DP23 1-149) (natural protein)
- Kd1 (site 1 of the two-sites fit) [1]: 0.063 µM
- Kd2 (site 2 of the two-sites fit) [1]: 2.91 µM
- Kd1 (site 1 of the two-sites fit) [2]: 0.0361 µM
- Kd2 (site 2 of the two-sites fit) [2]: 1.44 µM
- Kd1 (site 1 of the two-sites fit) [3]: 0.0371 µM
- Kd2 (site 2 of the two-sites fit) [3]: 2.03 µM
- Kd1 (site 1 of the two-sites fit) [4]: 0.0376 µM
- Kd2 (site 2 of the two-sites fit) [4]: 2.49 µM
- Kd1 (site 1 of the two-sites fit) [5]: 0.0251 µM
- Kd2 (site 2 of the two-sites fit) [5]: 3.03 µM
- Kd1 (site 1 of the two-sites fit) [6]: 0.0365 µM
- Kd2 (site 2 of the two-sites fit) [6]: 1.42 µM
- Kd2 (site 2 of the two-sites fit) [7]: 3.09 µM
- Kd1 (site 1 of the two-sites fit) [8]: 0.0682 µM
- Kd2 (site 2 of the two-sites fit) [8]: 0.559 µM
- Kd2 (site 2 of the two-sites fit) [9]: 4.58 µM
- Kd1 (site 1 of the two-sites fit) [10]: 0.0433 µM
- Kd1 (site 1 of the two-sites fit) [11]: 0.0473 µM
- Kd2 (site 2 of the two-sites fit) [11]: 1.95 µM
- Kd1 (site 1 of the two-sites fit) [12]: 0.0383 µM
- Kd2 (site 2 of the two-sites fit) [12]: 2.01 µM
- Kd2 (site 2 of the two-sites fit) [13]: 1.1 µM
- Kd1 (site 1 of the two-sites fit) [14]: 0.013 µM
- Kd2 (site 2 of the two-sites fit) [14]: 8.17 µM
- Kd2 (site 2 of the two-sites fit) [15]: 3.95 µM
- Kd2 (site 2 of the two-sites fit) [16]: 5.04 µM
